What was measured:
Human Siglec-9 (human) [1] = molecular target: Human Siglec-9 (human) (UniProt Q9Y336); assay: flow cytometry on fresh purified human NK cells (CD3-/CD56+), isotype control staining
Human Siglec-7 (human) = Human Siglec-7 (human) (UniProt Q9Y286); assay: as above
Human Siglec-9 (human) [2] = molecular target: Human Siglec-9 (human) (UniProt Q9Y336); assay: flow cytometry titration on neuraminidase-treated moDCs, goat F(ab')2 anti-human IgG (Fc) PE; table under the right panel; the curve itself is flat
Human Siglec-9 (human) [3] = molecular target: Human Siglec-9 (human) (UniProt Q9Y336); assay: flow cytometry titration on untreated monocyte-derived dendritic cells (moDCs), goat F(ab')2 anti-human IgG (Fc) PE; table under the left panel; the curve itself is flat

Human Siglec-9 (human), sequence (Q9Y336 18-463): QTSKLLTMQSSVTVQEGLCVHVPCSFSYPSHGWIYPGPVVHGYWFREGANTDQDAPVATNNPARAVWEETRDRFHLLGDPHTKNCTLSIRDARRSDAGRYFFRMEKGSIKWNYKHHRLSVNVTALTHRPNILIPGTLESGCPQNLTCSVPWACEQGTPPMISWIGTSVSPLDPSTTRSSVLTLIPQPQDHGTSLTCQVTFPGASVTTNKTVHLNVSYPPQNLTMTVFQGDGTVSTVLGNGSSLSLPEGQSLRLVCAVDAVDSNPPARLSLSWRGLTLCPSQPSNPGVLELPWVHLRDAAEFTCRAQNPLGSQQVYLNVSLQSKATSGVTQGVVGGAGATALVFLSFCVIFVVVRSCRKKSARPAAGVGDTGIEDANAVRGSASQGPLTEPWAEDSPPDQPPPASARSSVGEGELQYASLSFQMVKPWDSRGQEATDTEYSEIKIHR
Human Siglec-7 (human), sequence (Q9Y286 19-467): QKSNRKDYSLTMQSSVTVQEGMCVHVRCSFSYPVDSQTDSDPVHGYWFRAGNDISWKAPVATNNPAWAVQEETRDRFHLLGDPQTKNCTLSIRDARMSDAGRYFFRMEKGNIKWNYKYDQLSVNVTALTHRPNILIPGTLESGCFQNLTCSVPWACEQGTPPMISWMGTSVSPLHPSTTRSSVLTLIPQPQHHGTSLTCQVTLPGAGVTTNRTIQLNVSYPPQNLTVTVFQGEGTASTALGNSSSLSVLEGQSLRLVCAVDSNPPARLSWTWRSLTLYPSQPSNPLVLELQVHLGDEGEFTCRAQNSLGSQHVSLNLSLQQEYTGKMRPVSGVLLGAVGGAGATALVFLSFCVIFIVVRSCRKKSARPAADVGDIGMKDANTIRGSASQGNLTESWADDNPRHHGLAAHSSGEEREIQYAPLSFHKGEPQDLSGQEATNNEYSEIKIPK

Substance: Isotype control - PE (antibody)
- percent of NK cells in quadrant Q2 (APC positive, PE positive) (Human Siglec-9 (human) [1]): 0.34%
- percent of NK cells in quadrant Q3 (PE positive, APC negative) (Human Siglec-9 (human) [1]): 2.54%

Substance: Isotype control - APC (antibody)
- percent of NK cells in quadrant Q1 (APC positive, PE negative) (Human Siglec-7 (human)): 0.975%
- percent of NK cells in quadrant Q2 (APC positive, PE positive) (Human Siglec-7 (human)): 0.34%

Substance: Isotype control (antibody)
- EC50 (Human Siglec-9 (human) [2]): 1.22 µg/mL
- EC50 (Human Siglec-9 (human) [3]): 2.24 µg/mL

Reference: patent US20200369765A1
